Reference: patent US20250064929A1 (UPSTREAM BIO, published 2025)

Columns and labels:
[1] = target: T1, human TSLP receptor (TSLP-R) (human, UniProt Q9HC73 23-371); assay: cell-based or functional assay
T1 sequence (looked up): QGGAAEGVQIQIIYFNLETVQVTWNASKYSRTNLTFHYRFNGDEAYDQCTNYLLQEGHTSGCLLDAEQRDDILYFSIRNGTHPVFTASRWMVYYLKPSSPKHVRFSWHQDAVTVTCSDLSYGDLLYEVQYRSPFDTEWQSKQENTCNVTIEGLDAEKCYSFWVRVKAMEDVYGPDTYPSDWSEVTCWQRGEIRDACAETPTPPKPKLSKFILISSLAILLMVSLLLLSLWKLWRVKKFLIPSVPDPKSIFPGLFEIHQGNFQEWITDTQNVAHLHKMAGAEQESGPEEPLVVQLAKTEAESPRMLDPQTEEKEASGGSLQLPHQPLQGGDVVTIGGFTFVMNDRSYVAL

[2] = target: T1, human TSLP receptor (TSLP-R); assay: cell-based or functional assay; remark: listed apart in the source

B1: TRAB-1 antibody (anti-TSLP-R antibody) (antibody, human IgG1, kappa, V domains shown)
VH: EVQLLESGGGLVQPGGSLRLSCAASGFTFRSSAMHWVRQAPGKGLKWVSSVSGSGAGTYYADSVKGRFTISRDNPKNTLYLQMNSLRAEDTAVYYCVKEGGSRGFDYWGQGTLVTVSS
VL: DIQMTQSPSSLSASVGDRVTITCRASQDISNYLAWFQQKPGKAPKSLIYTASSLQSGVPSKFSGSGSGTDFTLTISSLQPEDFATYYCQQYNLYPPTFGQGTKVEIKR
[1]
  IC50 (ng/mL), cell proliferation of Ba/F3 cells transfected with human TSLP-R/IL-7Rα: 90.7 ng/mL
[2]
  IC50 (ng/mL), CCL17 production in dendritic cells: 16.1 ng/mL
